Experimental data published in US20120258090.

What was measured:
[1] = molecular target: fully carboxylated recombinant human prothrombin, P00734
[2] = molecular target: incompletely carboxylated recombinant human prothrombin, P00734

B1: recombinant ecarin (activated, in CHO-S culture supernatant) (protein)
chain: VPPHERKFEKKFIELVVVVDHSMVTKYNNDSTAIRTWIYEMLNTVNEIYLPFNIRVALVGLEFWCNGDLINVTSTADDTLHSFGEWRASDLLNRKRHDHAQLLTNVTLDHSTLGITFVYGMCKSDRSVELILDYSNITFNMAYIIAHEMGHSLGMLHDTKFCTCGAKPCIMFGKESIPPPKEFSSCSYDQYNKYLLKYNPKCILDPPLRKDIASPAVCGNEIWEEGEECDCGSPADCRNPCCDAATCKLKPGAECGNGECCDKCKIRKAGTECRPARDDCDVAEHCTGQSAECPRNEFQRNGQPCLNNSGYCYNGDCPIMLNQCIALFSPSATVAQDSCFQRNLQGSYYGYCTKEIGYYGKRFPCAPQDVKCGRLYCLDNSFKKNMRCKNDYSYADENKGIVEPGTKCEDGKVCINRKCVDVNTAY
- activation of prothrombin [1]: the recombinant ecarin is able to efficiently activate both the fully carboxylated and the incompletely carboxylated prothrombins
- activation of prothrombin [2]: the recombinant ecarin is able to efficiently activate both the fully carboxylated and the incompletely carboxylated prothrombins
